Laboratory results from article PMC10194888 (PLOS ONE, 2023).

Legend:
[1] = target: O83132; assay: AUC; sedimentation velocity, 50,000 rpm, 20 °C, Working Buffer (20 mM HEPES, 0.1 M NaCl, pH 7.5, 2 mM n-octyl-β-D-glucopyranoside); 10 μM, 31 μM and 100 μM; c(s) analysis; monomer to dimer
[2] = target: the molecule itself; assay: as above

B1: TP0094 (putative phosphotransacetylase, Pta) of Treponema pallidum, wild-type (enzyme, UniProt O83132 1-336, looked up)
chain: MTFVESMQRRAVLAQKRLVLPEACEQRTLEAARLIVFRNIAAKVFLVGCERDIKNTADRCGIDLTDMVVIDPSVSKHRDQFAERYFQKRKHKGISLAQAAEDMRDPLRFAAMMLDQGHADAMVAGAENTTARVLRAGLTIIGTLPSVKTASSCFVMDTNNPRLGGTRGLFIFSDCAVIPTPTAEQLADIACSAAESCRTFIGEEPTVALLSYSTKGSGGDSDENILRVREAVRILHERRVDFTFDGELQLDAALVPKITEKKAPHSPITGKVNTLVFPDLSSGNIGYKLVQRLSDADAYGPFLQGFAKPLSDLSRGCSVEDIVAACAVTLVQSNGR
notes: TP0094, putative phosphotransacetylase (Pta; EC 2.3.1.8) of Treponema pallidum; DNA fragment encoding all amino-acid residues of TP0094; also called TpPta; WT TP0094; source: E. coli BL21 AI (co-transformed with pGroESL), purified
- mass purity of the dimer [1]: we estimate the mass purity of the dimer to range from 95–97%
- stoichiometry N [2]: 2
